In a protein production outcome set (Wang et al. 2014):

Test: label from the status in PepcDB records

Sequence | protein production
MLHHVEINVDHLEESIAFWDWLLGELGYEDYQSWSRGKSYKHGKTYLVFVQTEDRFQTPTFHRKRTGLNHLAFHAASREKVDELTQKLKERGDPILYEDRHPFAGGPNHYAVFCEDPNRIKVEIVAP | not failed
MGQTAFVVKTESYRLLWDCITYLDETTITKIKELGGLDAIALSHPHYYSTQVEWAETFDVPIYIHEDDKEWVMRPSSRIIYWSGESLQLADGITVHRLGGHFSGGSVLHWEEGNDGKGILLTGDIIQVVADERWVSFMYSYPNLIPLPARKVEEMVNRVKPLQFNRLYNAFHRVVKLEHHHHHH | not failed
MLTLVLASAQSPDLRGRGPDMEPRSSVAKSGVALGVLLLIGLPVAAQNSKVKTNYLSHIEPCNGVGATPLDVRIDACTAFIEASQGTTAALAIAYNNRGNAYTAKGDYDKAIRDFDQSIALKPTYAKAFNNRGVAYLRKGEYELAIEAFDDAIKLDPDYVAAFVNRAGAYLKKNDHQRAAHDYDEAIRLQPDSQAARSGRCWTRAVLGAWQAALEDCDRALQSGSTSAAVYDSRGLIHLKMGEFGAAIADYNSALRAAPELASALFGRGLAKLKQGDAIGGDSDISAAKTIQGNIGDEFAHYGVGRD | failed
MSYEKEFLKDFEDWVKTQIQVNQLAMATSQEVAQEDGDERAKDAFIRYESKLDAYEFLLGKFDNYKNGKAFHDIPDELFGARHY | not failed
MKALIFAAGFGERMRPLTEHTPKPLLSVGGTPLIVWHLRKLAALGVDEVVINTSWLAEQFPQVLGDGSAFGLRLTYSYEGATPLETGGGMLHALPLLGDAPFLLVNGDIWTDFDFARLSHAPDGLAQLVLVDQPSYATRADFALDADGNVRADLPASLTYSGIGMYRPALLRDWQSVIGQLPEQPCTAPRFALAPILRAQMTARLINGIHHSGRWTDVGTPQRLAELDAQLLRDGS | failed
MSGISSLGGRVGVTILEILIFSAGLLLLIKGSDIFVEAATRIAEAFKVSEFLIALVLASVATTLPEVTVSAISSYRGNSGIAIGNAVGSALANIALILAISAMIMPLNVDKIASENSLIMVGVTFYAWLLMSNGEISRIEGLTLVLIYAAFLYYLYRKHVKLEEVEKKSRCNVTRDVLILFLSGGMVILGAELVVDSAVKIARAIGIPEVVIGVTLVSIGTSLPEFANSLTATLKKIPNVSVGNIIGADILDILMVIGIASMIRPIRVDPSIVKIVMPITLLVMIILTVSLFRNNKIGRKTAVTLLIIYSAFIYLLTQGKVYIPG | failed
MERHQHLLSEYQQILTLSEQMLVLATEGNWDALVDLEMTYLKAVESTANITISSCSSLMLQDLLREKLRAILDNEIEIKRLLQLRLDRLSDLVGQSTKQQAVNNTYGQFPDHALLLGETQ | not failed
MLSFRARLFLAFALLWLLFLGGGWYLAGRSVDQALKRRLEATLAQDALRAAEAYQKGQAGALLTTGGVYLHLYAQDGTPIALTRPDHRLPPERLRRAGPTPEVLWEEGFAAALVATPLGLLVLTAETSPIEAALEALREALLRAFLLLSPLGLALVYLTARLAARPLEAVAREITRRSPDRLDPVPHRLPQDEFGRMVEAVNALLQALKEAKERERAFLAEASHELRTPLTVLLGHLDRLGRNPQDLEALRTARATAERMRRLVEDLLALARGEVERNLNLHIVDLGEVAREAALEHGVAAEAESAEVLGDPDRLLQLLRNLVANAVRAAGKEGVRVRVRREADHALLEVEDSGPGIPEDLLPRLFQRFARGPGGGTGLGLAIAHAIAKAHGGEIAVESRPGRTVFRVRLPLLEEEA | failed
MRVLETIVALREYRKSLEESVGFVPTMGALHKGHQSLIERSLKENSHTIVSVFVNPTQFGANEDFNAYPRPLEKDLALCEKLGVNAVFVPKIGEMYPYEAEQRLKLYAPKFLSSSLEGAMRKGHFDGVVQIVLKMFHLVNPTRAYFGKKDAQQLLIIEHLVKDLLLDIEIAPCEIVRDDDNLALSSRNVYLNATQRKQALAIPKALEKIQQAIDKGEKACEKLKKLGLEILETLEVDYLECCNHKLEPLTIIEPTNTLILVAARVGKTRLLDNLWV | failed
MTRKQMKTLVNRLFIISTFLLTSVQSYANFIDISEQQINQYLATKLTEKFRMQDQIGIPGLFQLNYHLHNLTTQIGRTDANKVSLSGIIDGVLLLKGKSYDAQLNLNIDTTPYYDTKTGKLYLKDIRLLNYSASPEKYQDKLQAFLPLLVDGLSKMLNNTPIYTLDENKTQEALLKKFGKAIVIEQGKLSLQTALF | failed
MKTRCGCKKIASYTVVKLILNRLDVAMNSTIRRWFASAGAMRRVFSTFAPYLGAGIKVTHIADDFSSATVEMRQHWYNTNYVGTHFGGSLYSMVDPMYMLLLMRSLGNDYIVWDKSASIDFIRPGKGVVKAHFELTDARLDEIREATADGDKYLPEWYIDIVDEAGTVVSRVHKVLYVRRKPAE | failed
MRGLSLSPVVLPEVRREAGVELRKARLEDVDAIYWLIRYWAEKGLMLVRSHSHLYENIRDFWVLEDEDGQIVGTVALHVLWRDLAEIRGLAVHPTRQGQGLGRWLVLGAEREARDLGLPRVFAWTLQVNFFRALGYRVTSR | failed
MDSPIINEQFWDALFFNGTMPWDRSQTPNELKHYLKRIADKTHSVFIPGCGAAYEVSHFVDCGHDVIAMDYSAEAVNLAKSQLGQHQDKVMLGDVFNADFSREFDVIYERAFLAALPREIWGDYFAMIERLLPSNGLLVGYFVISDDYRSRFPPFCLRSGEIEQKLEANFHLIESTPVTDSVDVFKGKEQWMVWQKLEHHHHHH | failed
MADTNYIRDLSLHRNNHVLYVKILSIWDNQSMIFGTPTTMILYDVKGTRIDTRVPWGDYLNNFKPSLFEGKWYYIADFRLKRATSIPKYSSFNYEIEFMWHTKMWPVSDRSDESSLQFIHADEIESESEDYVTDAIGVISSVSTEARFPYVCREGETDYEARYVTFTIRDNLDRIITCVARGSACESFLTKFYRLIGMKTYNYEPITTVLRFFRASNFKGSKALISEHGCSRIFIEESFPDFDVTVYINWFACEDDGSVEGKIEYFVEN | failed
AIAAQKISEAHEHIAKAEKYLKTSFMKWKPDYDSAASEYAKAAVAFKNAKQLEQAKDAYLQEAEAHANNRSLFHAAKAFEQAGMMLKDLQRMPEAVQYIEKASVMYVENGTPDTAAMALDRAGKLMEPLDLSKAVHLYQQAAAVFENEERLRQAAELIGKASRLLVRQQKFDEAAASLQKEKSMYKEMENYPTCYKKCIAQVLVQLHRADYVAAQKCVRESYSIPGFSGSEDCAALEDLLQAYDEQDEEQLLRVCRSPLVTYMDNDYAKLAISLKVPGGGGGKKKPSASASAQPQEEEDDEYAGGLC | failed
MSYLGGYGLIYLVTIVGYFILASFLGSFQLSSDLFNFEFYSSLSGISALMVWAFWLFLIYLNIILVVRRLHDLNKSGWMGLLLFIPVVQFFFMLYLLLASGTAGTNQYGPVRPSTFIEKLMAWLILIAILISLISTVGFFYYFSGTDTIQTPTQILQKGTEYF | failed
MSLWRLPMTLKTMTLAFAVTGLGVLAGSSPSVVQQRDGSQVVTPDEPKYNEDTGFYEYEKDGHKVQMNKDDVKTIEEVKLEHHHHHH | not failed
MKNRIWSAAMAAGLLVAAATSAQAEPVMQGRDAYGDWQSDRPGTVRLIRPQDLVKPGATRSVASFARVVPRPSDASPQVPPGFKIELFAEGLRAPRIVRVAPNGDVFVAETRAGTIRVLRAGEGGKVAANEVFASGLRQPFGVAFFPNGDNPQWVYVANTDSVVRFPYQAGDLKARSKAEKIVASLPHDGGHSTRDIVFTPDNKRMLVSVGSLSNVAEGMGTPPGGMDAWSKTQPLGAAWASETERATVLAFTPDGKERKIYATGIRNCVGLAIQSQTGLPWCSTNERDGLGDDLVPDYVTSVKEGAFYGWPWFYIGGNEDPRHAGARPDLKDRVTIPDVLIQPHSASLGMTFYEGTQFPSDYQGDAFAAEHGSWNRSKRTGYKVIRIRMKDGKPTGEYEDFVTGFVLSDTEVWGRPVGVAVAKDGALLISEDGNGTIWRVSHP | failed
MRQAKTDLAEQIFSATDRLMAREGLNQLSMLKLAKEANVAAGTIYLYFKNKDELLEQFAHRVFSMFMATLEKDFDETKPFFEQYRQMWKNIWYFLQENPTILSNLKQYESLPNFKDICKNIKNCRWDLFCHQAQKAGLLAELSEDILFLLSLKTAINLASDAKFIDFDLKPEILESVIERSWRAIQK | not failed
MEGNFIVARFDKNTSFFEDLEEVCNKHGVKAGTVVWAIGMLKDFEVGYWNGQDYEKETFRERLEIVSLHGTIAENDPKYHIHASGARSNHMIVGGHLFSATVDPLIEIQIMKIEGPKMTRVQDPSDKLFKLKIE | failed
MISMPKEKVVIIIPTYNEEDNISNTIDLILKETYSLADYQVDILVFDSHSTDSTAHIVRELTYTSQRIHFAQEPQKTGLGSAYLQAMRIAIDELNADVVFEFDADGSHQPCYIAPMLELLKQHDVVVGSRYISGGRIPSNWAFHRKLLSVGGNWVARMLLTGKYKDLTSGLRAIRTNLLKKLLPSNFLSNNYAYKLELYWLLHKAKARIVEFPIQFIDREKGKSKLPKNSMIDTLRVLFTLRFRELRQYLTMCCVGSIGALIQFSLYNWLRSSNHSALVSSQVAISAAIISNFIFHHSITFKQKTDFRITKTTFSRFTQFIIYSTFMVYFQSLWVHIFVHSFGQGVLKENIIVASGLGIGSIINYLFYSNIIWSSKGTHSLNSNSSKETQI | failed
MDRRDYYVEYYEVLDRVLSDYVNQLREKREHWLKMGGHDVGVPLINLLFWQFTWHREEYDRLRKEGKSCGEALGSVKEILADKQVEEWERQEEEYKIYDHEWYEALAPYGGQLVIYIYNARQLVYLTPLIERLEEPVLLLSEYEIPDETELPDFVTAITLEFTKTVPLVNPFLKEWFPLIFQYANTFDILMRILQPKGLIFLEGCHYQQLLLATIGRDYGIPTLCIQQGWPSLMHTAFRRMPYRYYLMWGEGFRTLWEKHNPLPDFVPTGYMYQVEPRNETKKECVTFFLQGPFFLSDKRYLQEMIRLIGTVAAEFPARRFLVREHPEFRIGEEVRMEWEQIPNIEMVTDGKLAEVFARTRVGVAHYSSSLMEGVAHGAVPLVYDPTEGSRYSPDVEAEGLGMIAKTKEELTGGLSRILGNYEDFKQRIEKEQPLWFQATGEETLRNMVGFIKEKMPPVTLKEIYVVDTDTLTRERPVGVSGLLRCKNCEDFLEMCIDSCIDGLDELIAVYHDCTDRTPEILRQKAAQYPDKIRVFEYQPSVYPIDLDEEELEKAKLLPPDSIHTLAGYCNYALSKASYRYAVKIDADQVYFTDRLKHICDAYRSDKKVRFNVAECISYNLYRAYVDSFNRIEMRPFRWLERIALWTHASYASYLEKMIIRYKVPVSMSGINLFRKDREWMVGLGQEHPEPDSKEILPPFNGVRDTFFFEVSEDRIFRYMTETKLDGRHRGVEVMRCPNEILDVGFCWFHLRALMKEHEEGYRQSYRKHPERFIPLGTFVKLSYRNLQQRYKPFVAVRWAEPVFAYFFMTGKGRIPWKKLKEIE | failed
RAAAALAAGALALSLTACGGDEDNGGGDGGDEGGGAKQPASSVTLPKLDGESLEVAAVWTGTEQENFKKVLAEFEKRTGAKVTFVPAQDPIINFLGSKIAGGAPPDVAMLPQPGAIKQAVDKGWAKPLGAEATKELGENYSQGWQDIGKVGGKQYGVYYKAANKSLIWYNAQVFENAGAAEPKTWDELLNAAQMVYDSGVTPFSVGGADGWTLTDWFENVYLSQAGPEKYDQLAKHEIKWTDPSVKDALTTLAEIWGKKDFVAGGASGALQTEFPASVTQTFTGGDQPKAGMVYEGDFVQVNIGETKAKVGTDAKVFPFPAVGDTAPVVSGGDAAVVFKDSKAAQALATWLASPDAAGIQAKLGGFLSPNKSIDSSVYPNEVQKKIAEALVAAGDDFRFDMSDQAPQAFGGTPGKGEWKTLQDFLKNPKDVAGAQAKLEADAAAAYG | failed
